Among the data in the Immune Epitope Database (IEDB) are Kd values, retold here.

One assay concerns the target HLA-B*07:02. The experiment in a line: IEDB peptide-MHC binding, purified MHC/direct/fluorescence; filed as Kd, often an IC50 or EC50 that approximates it; ≥ and ≤ were set here for values at or beyond the usual limits of such assays. To be noted: source organism: Escherichia coli O157:H7.
Another assay deals with HLA-A*01:01. The assay is described as above. The note with it: source organism: Escherichia coli O157:H7.
For a further assay, the target named is HLA-B*18:01. The assay is described as above. To be noted: source organism: Escherichia coli O157:H7.
The next assay concerns the target HLA-B*27:05. Described as above. The note with it: source organism: Escherichia coli O157:H7.
The target in another assay is HLA-B*57:01. The description is as above. To be noted: source organism: Escherichia coli O157:H7.
The target of a further assay is HLA-A*31:01. The description is as above. The note with it: source organism: Escherichia coli O157:H7.
In another assay the target is HLA-A*68:02. The assay is described as above. The note with it: source organism: Escherichia coli O157:H7.
The next assay has as its target HLA-B*15:17. The assay is described as above. The note with it: source organism: Escherichia coli O157:H7.
In the next assay the target is HLA-B*40:01. The assay is described as above. To be noted: source organism: Escherichia coli O157:H7.
The target in a further assay is HLA-A*03:01. The description is as above. The note with it: source organism: Escherichia coli O157:H7.
In a further assay the target is HLA-B*58:01. The description is as above. The note with it: source organism: Escherichia coli O157:H7.
Another assay addresses HLA-A*11:01. The assay is described as above. The note with it: source organism: Escherichia coli O157:H7.
The next assay addresses HLA-A*69:01. The assay is described as above. The note with it: source organism: Escherichia coli O157:H7.
The target in a further assay is HLA-B*15:01. Described as above. To be noted: source organism: Escherichia coli O157:H7.
A further assay deals with HLA-A*02:01. The description is as above. The note with it: source organism: Escherichia coli O157:H7.
For another assay, the target named is HLA-B*48:01. Described as above. The note with it: source organism: Escherichia coli O157:H7.
A further assay concerns the target HLA-B*39:01. The experiment in a line: IEDB peptide-MHC binding, purified MHC/competitive/fluorescence; filed as Kd, often an IC50 or EC50 that approximates it; ≥ and ≤ were set here for values at or beyond the usual limits of such assays. To be noted: source organism: Escherichia coli O139:H28 str. E24377A.
Another assay has as its target HLA-B*83:01. The description is as above. To be noted: source organism: Escherichia coli O139:H28 str. E24377A.
The target in the next assay is HLA-B*40:13. Described as above. To be noted: source organism: Escherichia coli O139:H28 str. E24377A.
The next assay addresses HLA-B*15:42. The description is as above. The note with it: source organism: Escherichia coli O139:H28 str. E24377A.
The target in the next assay is HLA-B*45:06. The assay is described as above. To be noted: source organism: Escherichia coli O139:H28 str. E24377A.
The target of another assay is HLA-A*32:07. The assay is described as above. The note with it: source organism: Escherichia coli O139:H28 str. E24377A.

For REWGWRIPF, the Kd in the assay with HLA-B*07:02 is at least 20000 nM; with HLA-A*01:01, at least 20000 nM; with HLA-B*18:01, at most 1 nM; in the assay with HLA-B*27:05, 590 nM; with HLA-B*57:01 it was at least 20000 nM; with HLA-A*31:01 it was at least 20000 nM. The Kd was at least 20000 nM with HLA-A*68:02; at least 20000 nM with HLA-B*15:17; at most 1 nM with HLA-B*40:01; at least 20000 nM with HLA-A*03:01; at least 20000 nM with HLA-B*58:01; at least 20000 nM in the assay with HLA-A*11:01. For the same sequence, the Kd with HLA-A*69:01 was at least 20000 nM; with HLA-B*15:01, 45 nM; with HLA-A*02:01, at least 20000 nM; in the assay with HLA-B*48:01 it was 149 nM; in the assay with HLA-B*39:01 it was 135 nM; with HLA-B*83:01, at least 5000 nM. For the same sequence, the Kd with HLA-B*40:13 was 61.1 nM; in the assay with HLA-B*15:42 it was at least 5000 nM; with HLA-B*45:06, at least 5000 nM; with HLA-A*32:07, 13.5 nM.
